According to patent publication US20210163604A1 (MITSUBISHI TANABE PHARMA, published 2021):

Tests used:
human cMET [1] = target: T1, human cMET (human, UniProt P08581 25-932, limits assumed); test: SPR (Met Binding KD)
T1 construct: also called hMET; HGFR

human cMET [2] = target: T1, human cMET; test: ELISA, species cross-reactivity, antibody titrated on human cMET; x axis printed -8 to 2 with ug/mL (log10)
[3] = target: T2, monkey cMET (Macaca fascicularis, Cynomolgus Macaque) (Cynomolgus Macaque (Macaca fascicularis), UniProt A0A2K5UM36 25-932); test: ELISA, species cross-reactivity, antibody titrated on cynomolgus cMET; x axis printed -8 to 2 with ug/mL (log10)
T2 construct: also called Cyno cMET; NHP
T2 sequence (A0A2K5UM36 entry or part of it limits assumed): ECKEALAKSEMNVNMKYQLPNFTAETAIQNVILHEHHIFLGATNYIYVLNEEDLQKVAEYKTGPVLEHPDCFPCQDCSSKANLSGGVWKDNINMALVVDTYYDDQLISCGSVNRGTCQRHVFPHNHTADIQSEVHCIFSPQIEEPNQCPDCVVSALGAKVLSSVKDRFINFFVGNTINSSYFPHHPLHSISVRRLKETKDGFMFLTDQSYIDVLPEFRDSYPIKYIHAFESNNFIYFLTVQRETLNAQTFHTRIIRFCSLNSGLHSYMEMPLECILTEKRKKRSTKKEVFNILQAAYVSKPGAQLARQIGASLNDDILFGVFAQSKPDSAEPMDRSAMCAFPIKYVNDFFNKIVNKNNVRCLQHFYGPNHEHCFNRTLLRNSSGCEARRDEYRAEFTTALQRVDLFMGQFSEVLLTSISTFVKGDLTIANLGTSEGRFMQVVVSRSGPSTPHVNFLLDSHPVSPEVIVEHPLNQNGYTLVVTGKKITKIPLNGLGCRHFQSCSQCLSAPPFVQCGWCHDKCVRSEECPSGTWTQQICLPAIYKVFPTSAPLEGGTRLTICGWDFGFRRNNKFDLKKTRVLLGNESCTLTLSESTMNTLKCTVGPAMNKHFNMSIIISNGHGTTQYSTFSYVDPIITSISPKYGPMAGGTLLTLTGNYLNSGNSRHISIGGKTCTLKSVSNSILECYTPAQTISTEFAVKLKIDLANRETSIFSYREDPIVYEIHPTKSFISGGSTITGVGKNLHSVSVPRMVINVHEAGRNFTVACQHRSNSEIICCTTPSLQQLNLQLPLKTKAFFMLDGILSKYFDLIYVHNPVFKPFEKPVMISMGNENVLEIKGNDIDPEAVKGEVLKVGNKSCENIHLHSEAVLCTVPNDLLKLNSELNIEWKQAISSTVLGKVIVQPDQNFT

[4] = target: T3, Recombinant Human c-Met-10x His (human, UniProt P08581 25-932); test: MET Binding ELISA on plate-bound human cMET, direct binding; the half-maximal value is printed as IC50
T3 construct: Made in-house
T3 sequence (P08581 other isoform, or with tags, fused parts or gaps limits assumed): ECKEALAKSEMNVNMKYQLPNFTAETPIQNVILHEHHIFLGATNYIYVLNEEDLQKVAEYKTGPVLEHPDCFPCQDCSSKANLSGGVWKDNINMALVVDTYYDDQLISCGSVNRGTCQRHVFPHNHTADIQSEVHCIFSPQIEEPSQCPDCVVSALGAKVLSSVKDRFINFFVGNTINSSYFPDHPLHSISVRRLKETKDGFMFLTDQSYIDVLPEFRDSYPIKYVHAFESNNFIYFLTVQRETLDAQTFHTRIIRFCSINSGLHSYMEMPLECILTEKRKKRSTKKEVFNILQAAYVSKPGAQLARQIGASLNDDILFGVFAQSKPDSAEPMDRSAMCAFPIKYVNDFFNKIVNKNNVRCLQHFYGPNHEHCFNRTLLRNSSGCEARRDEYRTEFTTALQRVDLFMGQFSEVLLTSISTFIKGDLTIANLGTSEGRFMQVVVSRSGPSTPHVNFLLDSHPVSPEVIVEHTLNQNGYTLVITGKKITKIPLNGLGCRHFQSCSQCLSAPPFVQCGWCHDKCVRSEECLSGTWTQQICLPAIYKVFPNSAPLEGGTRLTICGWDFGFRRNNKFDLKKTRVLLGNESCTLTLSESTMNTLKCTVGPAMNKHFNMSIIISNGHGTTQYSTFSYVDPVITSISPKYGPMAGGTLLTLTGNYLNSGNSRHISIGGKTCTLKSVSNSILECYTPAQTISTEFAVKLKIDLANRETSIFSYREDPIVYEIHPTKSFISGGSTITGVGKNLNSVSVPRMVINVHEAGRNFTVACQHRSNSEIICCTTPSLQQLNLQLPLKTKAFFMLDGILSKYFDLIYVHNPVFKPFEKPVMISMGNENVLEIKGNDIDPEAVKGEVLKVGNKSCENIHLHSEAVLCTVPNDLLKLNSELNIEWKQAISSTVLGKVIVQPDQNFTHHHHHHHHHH
Description: Relative binding strength is indicated by luminescence (y-axis).

rat cMET = target: T4, rat cMET (rat, UniProt P97523 25-935, limits assumed); test: ELISA on rat cMET, ratio against the parental antibody
T4 construct: also called rMET
T4 sequence (P97523 25-935 limits assumed): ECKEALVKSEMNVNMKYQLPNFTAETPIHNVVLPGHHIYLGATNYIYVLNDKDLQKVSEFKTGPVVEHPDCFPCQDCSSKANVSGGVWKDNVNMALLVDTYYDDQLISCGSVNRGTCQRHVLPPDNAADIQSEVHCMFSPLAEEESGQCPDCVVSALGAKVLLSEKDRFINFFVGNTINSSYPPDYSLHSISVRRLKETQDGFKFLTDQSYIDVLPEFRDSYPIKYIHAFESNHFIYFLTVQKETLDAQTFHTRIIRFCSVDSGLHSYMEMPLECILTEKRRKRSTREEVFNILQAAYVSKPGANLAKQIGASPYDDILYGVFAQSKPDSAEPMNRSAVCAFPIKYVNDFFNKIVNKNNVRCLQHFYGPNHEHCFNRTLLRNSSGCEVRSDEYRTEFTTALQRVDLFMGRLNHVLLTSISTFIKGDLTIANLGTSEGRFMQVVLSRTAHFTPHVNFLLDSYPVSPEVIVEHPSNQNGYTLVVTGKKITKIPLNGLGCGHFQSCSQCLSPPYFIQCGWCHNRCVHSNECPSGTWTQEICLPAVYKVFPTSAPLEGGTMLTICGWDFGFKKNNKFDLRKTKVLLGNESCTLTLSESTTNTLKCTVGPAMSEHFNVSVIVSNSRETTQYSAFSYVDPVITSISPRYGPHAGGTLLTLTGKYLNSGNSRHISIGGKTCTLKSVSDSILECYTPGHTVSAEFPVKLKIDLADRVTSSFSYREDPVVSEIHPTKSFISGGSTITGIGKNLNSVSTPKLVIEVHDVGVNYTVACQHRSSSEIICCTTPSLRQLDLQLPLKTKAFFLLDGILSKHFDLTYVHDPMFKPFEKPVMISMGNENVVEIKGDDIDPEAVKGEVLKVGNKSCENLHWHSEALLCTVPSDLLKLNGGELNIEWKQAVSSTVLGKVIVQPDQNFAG

human cMET [5] = target: T1, human cMET; test: ELISA on human cMET, ratio against the parental antibody

T1 sequence (P08581 25-932 limits assumed): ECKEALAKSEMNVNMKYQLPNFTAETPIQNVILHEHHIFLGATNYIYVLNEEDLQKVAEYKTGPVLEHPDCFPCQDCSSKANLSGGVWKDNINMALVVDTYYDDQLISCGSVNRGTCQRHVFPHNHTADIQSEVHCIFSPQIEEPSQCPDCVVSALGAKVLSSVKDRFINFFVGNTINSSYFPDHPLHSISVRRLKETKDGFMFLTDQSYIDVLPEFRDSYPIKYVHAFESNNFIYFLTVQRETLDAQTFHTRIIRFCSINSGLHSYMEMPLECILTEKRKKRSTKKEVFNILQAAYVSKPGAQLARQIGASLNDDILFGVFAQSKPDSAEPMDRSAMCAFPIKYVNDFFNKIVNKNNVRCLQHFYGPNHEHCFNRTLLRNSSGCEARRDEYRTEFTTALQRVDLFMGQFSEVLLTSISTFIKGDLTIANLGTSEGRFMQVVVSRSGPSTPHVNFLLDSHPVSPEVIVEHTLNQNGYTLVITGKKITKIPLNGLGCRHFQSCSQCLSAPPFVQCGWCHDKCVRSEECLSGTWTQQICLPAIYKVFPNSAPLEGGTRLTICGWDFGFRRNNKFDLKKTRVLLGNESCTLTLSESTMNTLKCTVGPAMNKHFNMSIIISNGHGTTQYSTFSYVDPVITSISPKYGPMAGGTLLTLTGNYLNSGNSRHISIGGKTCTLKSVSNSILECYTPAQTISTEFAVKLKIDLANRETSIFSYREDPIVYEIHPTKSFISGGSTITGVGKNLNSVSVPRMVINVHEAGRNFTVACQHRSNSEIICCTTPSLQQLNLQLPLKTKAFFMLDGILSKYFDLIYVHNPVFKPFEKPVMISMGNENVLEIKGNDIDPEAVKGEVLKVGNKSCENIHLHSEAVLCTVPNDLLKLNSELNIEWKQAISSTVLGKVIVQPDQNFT

| Molecule | ELISA rMET vs parental (rat cMET) | ELISA hMET vs parental (human cMET [5]) | other results |
| --- | --- | --- | --- |
| 5D5 (agonist Met-mAb antibody, agonist positive control) |  |  | Kd (human cMET [1]): 0.85 nM |
| F6B1P3D12 mouse monoclonal anti-cMET antibody (antibody, V domains shown, Mouse hybridoma antibody) VH: QVQLQQSGAELAKPGASVKMSCRASGYTFTSYWMHWVKQRPGQGLDWIGYIKPSTDNTEYNQKFKDKATLTADKSSSTAYMQLSSLTSEDSAVYYCARSYGNYPLMDYWGQGTSVTVSS VL: QIVLTQSPAIMSASPGEKVTLTCSASSSVTSNYLYWYQQKPGSSPKLWIYSTSNLASGVPARFSGSGSGTSYSLTISSMEAEDAASYFCHQWSSYPPTFGSGTKLEIKR |  |  | EC50 (read off the curve) (human cMET [2]): ~0.2 µg/mL; EC50 (read off the curve) [3]: ~0.2 µg/mL |
| F6B1P1E2 mouse monoclonal anti-cMET antibody (antibody, V domains shown, Mouse hybridoma antibody) VH: QVQLQQSGAELAKPGASVKMSCKASGYTFTSYWMHWVKQRPGQGLEWIGYINPSTDYTEYNQKFKDKATLTADKSSTTAYMQLSSLTSEDSAVYYCVRSYGNYPLMDYWGQGTSVTVSS VL: QIVLTQSPAIMSASPGEKVTLTCSASSSVSSNYLYWYHQKPGSSPKLWIYSTSNLASGVPVRFSGSGSGTSYSLTISSMEAEDAASYFCHQWSSYPPTFGSGTKLEIKR |  |  | EC50 (read off the curve) (human cMET [2]): ~0.2 µg/mL; EC50 (read off the curve) [3]: ~0.2 µg/mL |
| hD12-IV (antibody hD12 attached to the payload of chemical formula IV, stochastic conjugation) (antibody, human IgG2, kappa, V domains shown, payload possibly on cysteines (random positions); payload of chemical formula IV linked through maleimide to cysteine thiols at random positions, Antibody-drug conjugate; also called hD12-vc-IV) VH: QVQLVQSGAEVKKPGASVKVSCKASGYTFTSYWMHWVKQAPGQGLDWIGYIKPSTDNTEYNQKFKDKATLTADKSTSTAYMELSSLRSEDTAVYYCARSYGNYPLMDYWGQGTTVTVSS VL: QIVLTQSPAILSLSPGERATLSCSASSSVTSNYLYWYQQKPGSSPKLLIYSTSNLASGVPARFSGSGSGTSYTLTISSLEAEDAASYFCHQWSSYPPTFGSGTKLEIKR |  |  | IC50 [4]: 0.058 µg/mL |
| hD12-VI (antibody hD12 attached to the payload of chemical formula VI, stochastic conjugation) (antibody, human IgG2, kappa, V domains shown, payload possibly on cysteines (random positions); payload of chemical formula VI linked through maleimide to cysteine thiols at random positions, Antibody-drug conjugate; also called hD12-vc-VI) VH: QVQLVQSGAEVKKPGASVKVSCKASGYTFTSYWMHWVKQAPGQGLDWIGYIKPSTDNTEYNQKFKDKATLTADKSTSTAYMELSSLRSEDTAVYYCARSYGNYPLMDYWGQGTTVTVSS VL: QIVLTQSPAILSLSPGERATLSCSASSSVTSNYLYWYQQKPGSSPKLLIYSTSNLASGVPARFSGSGSGTSYTLTISSLEAEDAASYFCHQWSSYPPTFGSGTKLEIKR |  |  | IC50 [4]: 0.036 µg/mL |
| humanized P3D12 antibody, HC SEQ ID NO: 108 (P3D12 VH-cdr) / LC SEQ ID NO: 47 (P3D12 VL-fra) (antibody, V domains shown) VH: QVQLVQSGAEVKKPGASVKVSCKASGYTFTSYWMHWVKQAPGQGLDWIGYIKPSTDNTEYNQKFKDKATLTADKSTSTAYMELSSLRSEDTAVYYCARSYGNYPLMDYWGQGTTVTVSS VL: QIVLTQSPAILSLSPGERATLSCSASSSVTSNYLYWYQQKPGSSPKLLIYSTSNLASGVPARFSGSGSGTSYTLTISSLEAEDAASYFCHQWSSYPPTFGSGTKLEIKR | 0.9 | 0.7 |  |
| humanized P3D12 antibody, HC SEQ ID NO: 105 (P3D12 VH-fra) / LC SEQ ID NO: 46 (P3D12 VL-ven) (antibody, V domains shown) VH: QVQLQQSGAEVKKPGASVKVSCKASGYTFTSYWMHWVKQRPGQGLDWIGYIKPSTDNTEYNQKFKDRVTLTADKSTSTAYMQLSNLISEDTAVYYCARSYGNYPLMDYWGQGTSVTVSS VL: QIVLTQSPATMSASPGERVTLSCSASSSVTSNYLYWYQQKPGSSPRLWIYSTSNLASGVPARFSGSGSGTSYTLTISRMEPEDAASYFCHQWSSYPPTFGSGTKLEIKR | 1.2 | 1.7 |  |
| F6BP2D4 mouse monoclonal anti-cMET antibody (antibody, V domains shown, Mouse hybridoma antibody) VH: QVQLQQSGAELAKPGASVKMSCKASGYTFTSYWMHWVKQRPGQGLEWIGYINPSTDYIEYNQKFKDKATLTAGKSSSTAYMQLSSLTSEDSAVYYCARSYGNFPLMDYWGQGTSVTVSS VL: QIVLTQSPAIMSASPGEKVTLTCSASSSVSSNYLYWYQQKPGSSPKLWIYSTSNLASGVPVRFSGSGSGTSYSLTISSMEAEDAASYFCHQWSSYPPTFGSGTKLEIKR |  |  | EC50 (read off the curve) (human cMET [2]): ~0.2 µg/mL; EC50 (read off the curve) [3]: ~0.2 µg/mL |
| hD12-VII (antibody hD12 attached to the payload of chemical formula VII, stochastic conjugation) (antibody, human IgG2, kappa, V domains shown, payload possibly on cysteines (random positions); payload of chemical formula VII linked through maleimide to cysteine thiols at random positions, Antibody-drug conjugate; also called hD12-vc-VII) VH: QVQLVQSGAEVKKPGASVKVSCKASGYTFTSYWMHWVKQAPGQGLDWIGYIKPSTDNTEYNQKFKDKATLTADKSTSTAYMELSSLRSEDTAVYYCARSYGNYPLMDYWGQGTTVTVSS VL: QIVLTQSPAILSLSPGERATLSCSASSSVTSNYLYWYQQKPGSSPKLLIYSTSNLASGVPARFSGSGSGTSYTLTISSLEAEDAASYFCHQWSSYPPTFGSGTKLEIKR |  |  | IC50 [4]: 0.042 µg/mL |
| hD12-XI (antibody hD12 attached to the payload of chemical formula XI, stochastic conjugation) (antibody, human IgG2, kappa, V domains shown, payload possibly on cysteines (random positions); payload of chemical formula XI linked through maleimide to cysteine thiols at random positions, Antibody-drug conjugate; also called hD12-vc-XI) VH: QVQLVQSGAEVKKPGASVKVSCKASGYTFTSYWMHWVKQAPGQGLDWIGYIKPSTDNTEYNQKFKDKATLTADKSTSTAYMELSSLRSEDTAVYYCARSYGNYPLMDYWGQGTTVTVSS VL: QIVLTQSPAILSLSPGERATLSCSASSSVTSNYLYWYQQKPGSSPKLLIYSTSNLASGVPARFSGSGSGTSYTLTISSLEAEDAASYFCHQWSSYPPTFGSGTKLEIKR |  |  | IC50 [4]: 0.103 µg/mL |
| hD12-II (antibody hD12 attached to the payload of chemical formula II, stochastic conjugation) (antibody, human IgG2, kappa, V domains shown, payload possibly on cysteines (random positions); payload of chemical formula II (pyrrolobenzodiazepine toxin and linking group) linked through maleimide to cysteine thiols at random positions, also called hD12-vc-II) VH: QVQLVQSGAEVKKPGASVKVSCKASGYTFTSYWMHWVKQAPGQGLDWIGYIKPSTDNTEYNQKFKDKATLTADKSTSTAYMELSSLRSEDTAVYYCARSYGNYPLMDYWGQGTTVTVSS VL: QIVLTQSPAILSLSPGERATLSCSASSSVTSNYLYWYQQKPGSSPKLLIYSTSNLASGVPARFSGSGSGTSYTLTISSLEAEDAASYFCHQWSSYPPTFGSGTKLEIKR |  |  | IC50 [4]: 0.052 µg/mL |
| humanized P3D12 antibody, HC SEQ ID NO: 108 (P3D12 VH-cdr) / LC SEQ ID NO: 48 (P3D12 VL-abb/sdr) (antibody, V domains shown) VH: QVQLVQSGAEVKKPGASVKVSCKASGYTFTSYWMHWVKQAPGQGLDWIGYIKPSTDNTEYNQKFKDKATLTADKSTSTAYMELSSLRSEDTAVYYCARSYGNYPLMDYWGQGTTVTVSS VL: QIVLTQSPATLSLSPGERATLSCRASQSVTSNYLYWYQQKPGSSPRLLIYSTSNLASGVPARFSGSGSGTDYTLTISRLEPEDFASYFCHQWSSYPPTFGSGTKLEIKR | 2.7 | 1.3 |  |
| humanized P3D12 antibody, HC SEQ ID NO: 105 (P3D12 VH-fra) / LC SEQ ID NO: 47 (P3D12 VL-fra) (antibody, V domains shown) VH: QVQLQQSGAEVKKPGASVKVSCKASGYTFTSYWMHWVKQRPGQGLDWIGYIKPSTDNTEYNQKFKDRVTLTADKSTSTAYMQLSNLISEDTAVYYCARSYGNYPLMDYWGQGTSVTVSS VL: QIVLTQSPAILSLSPGERATLSCSASSSVTSNYLYWYQQKPGSSPKLLIYSTSNLASGVPARFSGSGSGTSYTLTISSLEAEDAASYFCHQWSSYPPTFGSGTKLEIKR | 1.4 | 1.7 |  |
| humanized P3D12 antibody, HC SEQ ID NO: 107 (P3D12 VH-abb/sdr) / LC SEQ ID NO: 47 (P3D12 VL-fra) (antibody, V domains shown) VH: QVQLVQSGAEVKKPGASVKVSCKASGYTFTSYWMHWVKQAPGQGLDWMGYIKPSTDNTEYAQKFQGRVTLTADKSTSTAYMELSSLRSEDTAVYYCARSYGNYPLMDYWGQGTTVTVSS VL: QIVLTQSPAILSLSPGERATLSCSASSSVTSNYLYWYQQKPGSSPKLLIYSTSNLASGVPARFSGSGSGTSYTLTISSLEAEDAASYFCHQWSSYPPTFGSGTKLEIKR | 0.5 | 1 |  |
| F6AP8E2 mouse monoclonal anti-cMET antibody (antibody, V domains shown, Mouse hybridoma antibody) VH: EVQLQQSGAELVRPGALVKLSCKASGFNINDYFMHWVKQRPEQGLEWIGWIDPENGNTIYDPKFQGKASITADTSSNTAYLQLSSLTSEDTAVYYCARGGNYLRESYYYAMDYWGQGTSVTVSS VL: DIVMTQSPKSMSMSVGERVTLSCKASENVGTYVSWYQQKPDQSPKLLIYGASNRYTGVPDRFTGSGSATDFTLTISSVQAEDLADYHCGQSYSYPLTFGAGTKLELKR |  |  | EC50 (read off the curve) (human cMET [2]): ~0.2 µg/mL; Kd (human cMET [1]): 0.18 nM; EC50 (read off the curve) [3]: ~0.2 µg/mL |
| humanized P3D12 antibody, HC SEQ ID NO: 108 (P3D12 VH-cdr) / LC SEQ ID NO: 49 (P3D12 VL-cdr) (antibody, V domains shown) VH: QVQLVQSGAEVKKPGASVKVSCKASGYTFTSYWMHWVKQAPGQGLDWIGYIKPSTDNTEYNQKFKDKATLTADKSTSTAYMELSSLRSEDTAVYYCARSYGNYPLMDYWGQGTTVTVSS VL: QIVLTQSPATLSLSPGERATLSCSASSSVTSNYLYWYQQKPGSSPRLLIYSTSNLASGVPARFSGSGSGTSYTLTISRLEPEDFASYFCHQWSSYPPTFGSGTKLEIKR | 2 | 1 |  |
| humanized P3D12 antibody, HC SEQ ID NO: 105 (P3D12 VH-fra) / LC SEQ ID NO: 49 (P3D12 VL-cdr) (antibody, V domains shown) VH: QVQLQQSGAEVKKPGASVKVSCKASGYTFTSYWMHWVKQRPGQGLDWIGYIKPSTDNTEYNQKFKDRVTLTADKSTSTAYMQLSNLISEDTAVYYCARSYGNYPLMDYWGQGTSVTVSS VL: QIVLTQSPATLSLSPGERATLSCSASSSVTSNYLYWYQQKPGSSPRLLIYSTSNLASGVPARFSGSGSGTSYTLTISRLEPEDFASYFCHQWSSYPPTFGSGTKLEIKR | 2.3 | 1.7 |  |
| humanized P3D12 antibody, HC SEQ ID NO: 108 (P3D12 VH-cdr) / LC SEQ ID NO: 46 (P3D12 VL-ven) (antibody, V domains shown) VH: QVQLVQSGAEVKKPGASVKVSCKASGYTFTSYWMHWVKQAPGQGLDWIGYIKPSTDNTEYNQKFKDKATLTADKSTSTAYMELSSLRSEDTAVYYCARSYGNYPLMDYWGQGTTVTVSS VL: QIVLTQSPATMSASPGERVTLSCSASSSVTSNYLYWYQQKPGSSPRLWIYSTSNLASGVPARFSGSGSGTSYTLTISRMEPEDAASYFCHQWSSYPPTFGSGTKLEIKR | 1 | 1.1 |  |
| humanized P3D12 antibody, HC SEQ ID NO: 105 (P3D12 VH-fra) / LC SEQ ID NO: 48 (P3D12 VL-abb/sdr) (antibody, V domains shown) VH: QVQLQQSGAEVKKPGASVKVSCKASGYTFTSYWMHWVKQRPGQGLDWIGYIKPSTDNTEYNQKFKDRVTLTADKSTSTAYMQLSNLISEDTAVYYCARSYGNYPLMDYWGQGTSVTVSS VL: QIVLTQSPATLSLSPGERATLSCRASQSVTSNYLYWYQQKPGSSPRLLIYSTSNLASGVPARFSGSGSGTDYTLTISRLEPEDFASYFCHQWSSYPPTFGSGTKLEIKR | 3.8 | 1.8 |  |
